Experimental data taken from patent US20260035433A1.
Numbering of substitutions follows the chain as printed.

B1: PD-L1 analog-Fc fusion protein of SEQ ID NO: 21 (Fc fusion)
chain: LIGYGGADYKRITLKVHAPYRNISQRISVDPVTSGGGGQGGGSGGQGGGGGDCPKCPAPEMLGGPSVFIFPPKPKDTLLIARTPEVTCVVVDLDPEDPEVQISWFVDGKQMQTAKTQPREEQFNGTYRVVSVLPIGHQDWLKGKQFTCKVNNKALPSPIERTISKARGQAHQPSVYVLPPSREELSKNTVSLTCLIKDFFPPDIDVEWQSNGQQEPESKYRTTPPQLDEDGSYFLYSKLSVDKSRWQRGDTFICAVMHEALHNHYTQESLSHSPG
B2: PD-L1 analog-Fc fusion protein of SEQ ID NO: 26 (Fc fusion)
chain: FTITVSKDLYVVEYGGNVTMECKFPVEKQLNLFALIVYWEMEDKKIIQFVNGKEDLKVQHSSYSQRAQLLKDQLFLGKAALQITDVRLQDAGVYRCLIGYGGADYKRITLKVHAPYRNISQRISVDPVTSEHELMCQAEGYPEAEVIWTSSDHRVLSGKTTITNSNREEKLFNVTSTLNINATANEIFYCTFQRSGPEENNTAELVIPERLPVPASERTHFMILGPFQGGGSGGQDCPKCPAPEMLGGPSVFIFPPKPKDTLLIARTPEVTCVVVDLDPEDPEVQISWFVDGKQMQTAKTQPREEQFNGTYRVVSVLPIGHQDWLKGKQFTCKVNNKALPSPIERTISKARGQAHQPSVYVLPPSREELSKNTVSLTCLIKDFFPPDIDVEWQSNGQQEPESKYRTTPPQLDEDGSYFLYSKLSVDKSRWQRGDTFICAVMHEALHNHYTQESLSHSPG
B3: PD-L1 analog-Fc fusion protein of SEQ ID NO: 22 (Fc fusion)
chain: FTITVSKDLYVVEYGGNVTMECKFPVEKQLNLFALIVYWEMEDKKIIQFVNGKEDLKVQHSSYSQRAQLLKDQLFLGKAALQITDVRLQDAGVYRCLIGYGGADYKRITLKVHAPYRNISQRISVDPVTSQGGGSGGQDCPKCPAPEMLGGPSVFIFPPKPKDTLLIARTPEVTCVVVDLDPEDPEVQISWFVDGKQMQTAKTQPREEQFNGTYRVVSVLPIGHQDWLKGKQFTCKVNNKALPSPIERTISKARGQAHQPSVYVLPPSREELSKNTVSLTCLIKDFFPPDIDVEWQSNGQQEPESKYRTTPPQLDEDGSYFLYSKLSVDKSRWQRGDTFICAVMHEALHNHYTQESLSHSPG
B4: PD-L1 analog-Fc fusion protein of SEQ ID NO: 20 (Fc fusion)
chain: FTITVSKDLYVVEYGGNVTMECKFPVEKQLNLFALIVYWEMEDKKIIQFVNGKEDLKVQHSSYSQRAQLLKDQLFLGKAALQITDVRLQDAGVYRCLIGYGGADYKRITLKVHAPYRNISQRISVDPVTSGGGGQGGGSGGQGGGGGDCPKCPAPEMLGGPSVFIFPPKPKDTLLIARTPEVTCVVVDLDPEDPEVQISWFVDGKQMQTAKTQPREEQFNGTYRVVSVLPIGHQDWLKGKQFTCKVNNKALPSPIERTISKARGQAHQPSVYVLPPSREELSKNTVSLTCLIKDFFPPDIDVEWQSNGQQEPESKYRTTPPQLDEDGSYFLYSKLSVDKSRWQRGDTFICAVMHEALHNHYTQESLSHSPG
B5: PD-L1 analog-Fc fusion protein of SEQ ID NO: 24 (Fc fusion)
chain: LIGYGGADYKRITLKVHAPYRNISQRISVDPVTSEHELMCQAEGYPEAEVIWTSSDHRVLSGKTTITNSNREEKLFNVTSTLNINATANEIFYCTFQRSGPEENNTAELVIPERLPVPASERTHFMILGPFGGGGQGGGSGGQGGGGGDCPKCPAPEMLGGPSVFIFPPKPKDTLLIARTPEVTCVVVDLDPEDPEVQISWFVDGKQMQTAKTQPREEQFNGTYRVVSVLPIGHQDWLKGKQFTCKVNNKALPSPIERTISKARGQAHQPSVYVLPPSREELSKNTVSLTCLIKDFFPPDIDVEWQSNGQQEPESKYRTTPPQLDEDGSYFLYSKLSVDKSRWQRGDTFICAVMHEALHNHYTQESLSHSPG
B6: PD-L1 analog-Fc fusion protein of SEQ ID NO: 27 (Fc fusion)
chain: FTITVSKDLYVVEYGGNVTMECKFPVEKQLNLFALIVYWEMEDKKIIQFVNGKEDLKVQHSSYSQRAQLLKDQLFLGKAALQITDVRLQDAGVYRCLIGYGGADYKRITLKVHAPYRNISQRISVDPVTSEHELMCQAEGYPEAEVIWTSSDHRVLSGKTTITNSNREEKLFNVTSTLNINATANEIFYCTFQRSGPEENNTAELVIPERLPVPASERTHFMILGPFGGGGQGGGSGGQGGGGGDCPKCPAPEMLGGPSVFIFPPKPKDTLLIARTPEVTCVVVDLDPEDPEVQISWFVDGKQMQTAKTQPREEQFNGTYRVVSVLPIGHQDWLKGKQFTCKVNNKALPSPIERTISKARGQAHQPSVYVLPPSREELSKNTVSLTCLIKDFFPPDIDVEWQSNGQQEPESKYRTTPPQLDEDGSYFLYSKLSVDKSRWQRGDTFICAVMHEALHNHYTQESLSHSPG
B7: PD-L1 analog-Fc fusion protein of SEQ ID NO: 32 (Fc fusion)
chain: B6 chain with R95C

molecular target: His-Tagged rhFc(gamma) receptor I (recombinant human Fc(gamma)R-I; Acro Biosystems, catalog# FCA-H52H1) (human); assay: ELISA, fusion protein coated at 10 ug/mL, His-tagged rhFc(gamma)RI in solution, anti-His-HRP
Sequence (P12314 16-292): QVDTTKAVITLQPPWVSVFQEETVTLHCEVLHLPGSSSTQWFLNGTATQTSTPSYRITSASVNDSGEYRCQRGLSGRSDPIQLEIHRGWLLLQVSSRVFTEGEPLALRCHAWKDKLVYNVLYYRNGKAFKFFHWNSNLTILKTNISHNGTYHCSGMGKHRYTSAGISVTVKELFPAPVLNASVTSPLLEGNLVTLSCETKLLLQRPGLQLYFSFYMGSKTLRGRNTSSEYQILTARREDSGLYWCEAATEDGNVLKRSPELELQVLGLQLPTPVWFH

OD450 at 222 ng/ml Fc(gamma) RI | Binder
2.05 OD450 | B1
1.79 OD450 | B2
1.91 OD450 | B3
1.97 OD450 | B4
1.49 OD450 | B5
1.78 OD450 | B6
1.7 OD450 | B7
